Reference: patent US20200055958A1

Target: VEGF-A (human) (UniProt P15692)
Assay: cell-based or functional assay

Chain of VEGF-A (human) (P15692 other isoform, or with tags, fused parts or gaps limits assumed): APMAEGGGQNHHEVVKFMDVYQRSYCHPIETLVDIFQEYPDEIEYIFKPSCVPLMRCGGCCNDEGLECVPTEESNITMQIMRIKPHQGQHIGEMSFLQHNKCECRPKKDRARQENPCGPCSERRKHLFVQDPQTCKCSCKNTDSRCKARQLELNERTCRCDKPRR

Substance: positive control, VEGFR1 ECD D2 and VEGFR2 ECD D3 fused C-terminally with IgG1 Fc fragment (Fc fusion)
- IC50, VEGF-dependent HUVEC cell growth assay (MTS): 0.19 nM
